According to PMC5339220:

Tests used:
[1] = target: T1, ComED58E D58E (Streptococcus pneumoniae D39) (UniProt A0A0H2ZLR3); experiment: EMSA; conditions: EMSA: 1x LightShift binding buffer, 1 ug poly(dI-dC), 2.5% glycerol, 0.05% NP-40, 5 mM Mn2+, 5 mM Zn2+, 2-4 ug protein, 1 ng probe, 20 ul, 37 C, 30 min; pH not …
T1 sequence: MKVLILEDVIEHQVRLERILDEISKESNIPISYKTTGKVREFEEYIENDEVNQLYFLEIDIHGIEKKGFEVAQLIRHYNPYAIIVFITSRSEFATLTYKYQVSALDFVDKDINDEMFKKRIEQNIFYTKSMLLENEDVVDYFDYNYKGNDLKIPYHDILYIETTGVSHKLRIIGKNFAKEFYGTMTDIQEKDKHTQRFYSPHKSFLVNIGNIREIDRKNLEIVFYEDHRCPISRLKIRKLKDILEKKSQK

[2] = target: CSP1 (UniProt P60243); experiment: EMSA; conditions: EMSA: 1x LightShift binding buffer, 1 ug poly(dI-dC), 2.5% glycerol, 0.05% NP-40, 5 mM Mn2+, 5 mM Zn2+, 2-4 ug protein, 1 ng probe, 20 ul, 37 C, 30 min; pH not …

TACACATCTGCTTCTAAAATATTGTTAGAAAACGATTTGACTGTCCTGATCAATTTGTCATGTTCTTATTTCATTTTACTATATTTTTGGTTCGCGGGAAGTCTACTAAGATACTTAAAGATGCAGATAGTGAAAAAAGGTGTAGACATTACCGTAAAAAAGTGATATAATCGTAAGATGTTCAATGTATAGGTGTTAATCATGAGTAGACGTTTTAA (double strand) [C2 probe (cps promoter)]
binding [1]: binds | binding [2]: no binding
